Paper PMC10873202, “Structural mechanisms of autoinhibition and substrate recognition by the ubiquitin ligase HACE1” (Nature Structural & Molecular Biology, 2024)

Key:
[1] = biological target: T1, HACE1 full length, wild type (HACE1 FL) (human), Q8IYU2; assay: SEC; analytical SEC, 20 μM HACE1, 50 mM HEPES (pH 8.0), 150 mM NaCl, 1 mM DTT, Superdex 200 Increase 3.2/300, 4 °C; conditions: remark: other sources report otherwise
T1 chain: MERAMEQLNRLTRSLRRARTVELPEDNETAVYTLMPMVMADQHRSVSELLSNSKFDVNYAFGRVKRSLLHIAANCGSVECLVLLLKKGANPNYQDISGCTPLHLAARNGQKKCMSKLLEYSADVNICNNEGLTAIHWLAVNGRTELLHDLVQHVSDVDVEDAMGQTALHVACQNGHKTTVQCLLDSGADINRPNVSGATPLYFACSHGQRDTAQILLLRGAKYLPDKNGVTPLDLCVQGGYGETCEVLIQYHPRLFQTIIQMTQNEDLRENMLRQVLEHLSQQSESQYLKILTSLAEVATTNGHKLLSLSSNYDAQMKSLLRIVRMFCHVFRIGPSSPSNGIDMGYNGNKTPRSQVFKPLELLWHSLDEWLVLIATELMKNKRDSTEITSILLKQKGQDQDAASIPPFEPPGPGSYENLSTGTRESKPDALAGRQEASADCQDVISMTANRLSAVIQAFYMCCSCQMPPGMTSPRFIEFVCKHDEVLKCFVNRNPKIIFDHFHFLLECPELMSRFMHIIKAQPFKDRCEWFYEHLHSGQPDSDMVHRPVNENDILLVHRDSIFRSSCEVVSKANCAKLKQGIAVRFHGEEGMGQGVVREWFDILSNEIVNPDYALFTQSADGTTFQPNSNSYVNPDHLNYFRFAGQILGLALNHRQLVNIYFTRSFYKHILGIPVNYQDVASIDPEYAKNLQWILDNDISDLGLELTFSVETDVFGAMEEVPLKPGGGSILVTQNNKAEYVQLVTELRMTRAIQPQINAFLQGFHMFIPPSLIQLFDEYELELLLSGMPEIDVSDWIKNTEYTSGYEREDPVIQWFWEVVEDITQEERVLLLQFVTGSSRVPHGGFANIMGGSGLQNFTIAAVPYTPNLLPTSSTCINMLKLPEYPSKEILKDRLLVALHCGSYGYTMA

[2] = biological target: T1, HACE1 full length, wild type (HACE1 FL) …; assay: mass photometry; HACE1 samples at 20–40 nM in 25 mM HEPES (pH 8.0), 150 mM NaCl; One^MP mass photometer, BSA calibration; conditions: remark: other sources report otherwise

B1: HACE1 full length, wild type (HACE1 FL), Q8IYU2 1-909 (enzyme)
chain: T1 chain
**Q.** How did the stoichiometry N [1] turn out when B1 was run?
**A.** 2

**Q.** What about the stoichiometry N [2] of the same binder?
**A.** 2
